Reference: US20090192084A1 (CALIFORNIA INSTITUTE OF TECHNOLOGY, published 2009)

T1: Ubiquitin conjugation factor E4 B, UBE4B (Ufd2ortholog) (human, UniProt O95155 1-1302)
T1 sequence (looked up): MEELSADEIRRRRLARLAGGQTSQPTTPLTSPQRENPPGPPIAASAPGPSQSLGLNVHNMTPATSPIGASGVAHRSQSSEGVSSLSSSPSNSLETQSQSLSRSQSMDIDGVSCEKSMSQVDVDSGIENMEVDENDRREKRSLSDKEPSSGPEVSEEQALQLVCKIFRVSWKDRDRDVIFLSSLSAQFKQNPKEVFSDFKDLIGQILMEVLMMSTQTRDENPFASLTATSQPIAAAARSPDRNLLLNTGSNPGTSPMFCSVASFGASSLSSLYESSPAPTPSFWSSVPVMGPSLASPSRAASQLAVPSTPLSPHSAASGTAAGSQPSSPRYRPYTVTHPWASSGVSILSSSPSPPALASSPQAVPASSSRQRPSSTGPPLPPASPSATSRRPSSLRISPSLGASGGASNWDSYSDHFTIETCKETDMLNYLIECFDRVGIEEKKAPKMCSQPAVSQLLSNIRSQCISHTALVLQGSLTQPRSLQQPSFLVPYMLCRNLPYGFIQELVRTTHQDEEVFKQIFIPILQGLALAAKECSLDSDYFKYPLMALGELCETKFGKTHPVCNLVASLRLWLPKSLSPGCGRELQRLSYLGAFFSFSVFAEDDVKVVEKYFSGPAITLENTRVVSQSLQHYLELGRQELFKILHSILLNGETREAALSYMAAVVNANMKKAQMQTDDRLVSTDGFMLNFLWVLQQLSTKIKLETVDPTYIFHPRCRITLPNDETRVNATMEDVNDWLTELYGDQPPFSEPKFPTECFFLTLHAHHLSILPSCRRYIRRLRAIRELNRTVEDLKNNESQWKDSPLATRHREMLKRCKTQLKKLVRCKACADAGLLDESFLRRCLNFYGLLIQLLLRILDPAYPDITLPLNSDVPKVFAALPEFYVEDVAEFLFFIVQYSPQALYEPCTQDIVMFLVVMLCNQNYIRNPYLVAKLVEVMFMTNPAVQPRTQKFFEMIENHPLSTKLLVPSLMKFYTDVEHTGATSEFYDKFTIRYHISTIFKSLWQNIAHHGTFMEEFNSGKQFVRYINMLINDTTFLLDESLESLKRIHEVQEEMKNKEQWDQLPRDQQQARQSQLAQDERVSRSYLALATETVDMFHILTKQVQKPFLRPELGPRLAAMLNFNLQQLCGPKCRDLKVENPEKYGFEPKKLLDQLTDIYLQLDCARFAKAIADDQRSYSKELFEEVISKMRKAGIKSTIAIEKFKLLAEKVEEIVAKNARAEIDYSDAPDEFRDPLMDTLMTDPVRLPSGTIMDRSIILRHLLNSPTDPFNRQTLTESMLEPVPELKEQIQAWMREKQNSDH


Experiments:
[1] = target: T2, endogenous p97 (human, UniProt P55072 2-806); test: Flag co-IP, 293 cells, MudPIT MS
T2 construct: also called VCP
Procedure: For immunoprecipitation experiments, the cells were lysed in buffer A (50 mM HEPES/KOH, pH 7.5; 5 mM Mg(OAc)₂; 70 mM KOAc; 0.2% Triton X-100; 10% glycerol; 0.2 mM EDTA; protease inhibitors) and incubated with anti-Flag agarose beads (Sigma) or anti-Myc sepharose beads (Covance).
Mass spectrometrical sample analysis was performed as described previously (Graumann et al., 2004) using a high-pressure liquid chromatography pump (Agilent) in line to a LCQ DecaXP electrospray ion trap mass spectrometer (ThermoFinnigan). In brief, 2-4 mg of protein extract were incubated with anti-Flag or anti-Myc beads and the immunoprecipitated proteins were eluted with saturated urea. The eluates were then proteolitically digested using sequentially endoproteinase Lys-C and trypsin. The resulting peptide mixtures were pressure-loaded onto triphasic microcapillary columns and sample separation was achieved using a chromatography program consisting of six salt steps, each followed by an organic gradient. The eluting peptides were electrosprayed into the mass spectrometer and the column eluate was continuously analyzed. One full-range mass scan ([…]) was followed by three data-dependent tandem mass spectrometry (MS/MS) spectra. Sequence database matching was performed against the IPI human database (Kersey et al., 2004) version 3.15.1 using Sequest (Eng et al., 1994) and the results were filtered with DTASelect (Tabb et al., 2002), using the parameters indicated in Graumann et al. (2004).

[2] = target: T1, Ubiquitin conjugation factor E4 B, …; test: co-IP, MudPIT MS

Binder | sequence count [1] | sequence coverage [1] [%] | spectrum count [1] | binding result [2]
Flag-UBXD8 (other, UniProt Q96CS3 1-445, looked up, also called RDB 2143; not shown: N-terminal Flag tag) MAAPEERDLTQEQTEKLLQFQDLTGIESMDQCRHTLEQHNWNIEAAVQDRLNEQEGVPSVFNPPPSRPLQVNTADHRIYSYVVSRPQPRGLLGWGYYLIMLPFRFTYYTILDIFRFALRFIRPDPRSRVTDPVGDIVSFMHSFEEKYGRAHPVFYQGTYSQALNDAKRELRFLLVYLHGDDHQDSDEFCRNTLCAPEVISLINTRMLFWACSTNKPEGYRVSQALRENTYPFLAMIMLKDRRMTVVGRLEGLIQPDDLINQLTFIMDANQTYLVSERLEREERNQTQVLRQQQDEAYLASLRADQEKERKKREERERKRRKEEEVQQQKLAEERRRQNLQEEKERKLECLPPEPSPDDPESVKIIFKLPNDSRVERRFHFSQSLTVIHDFLFSLKESPEKFQIEANFPRRVLPCIPSEEWPNPPTLQEAGLSHTEVLFVQDLTDE | 48 | 57.6 | 3090 | no binding
Flag-UBXD6 (other, UniProt O00124 1-270, looked up, also called Rep-8/UBXD6; RDB 2145; not shown: N-terminal Flag tag) MASRGVVGIFFLSAVPLVCLELRRGIPDIGIKDFLLLCGRILLLLALLTLIISVTTSWLNSFKSPQVYLKEEEEKNEKRQKLVRKKQQEAQGEKASRYIENVLKPHQEMKLRKLEERFYQMTGEAWKLSSGHKLGGDEGTSQTSFETSNREAAKSQNLPKPLTEFPSPAEQPTCKEIPDLPEEPSQTAEEVVTVALRCPSGNVLRRRFLKSYSSQVLFDWMTRIGYHISLYSLSTSFPRRPLAVEGGQSLEDIGITVDTVLILEEKEQTN | 55 | 59.5 | 212 | 
Flag-SAKS1 (other, UniProt Q04323 1-297, looked up, also called RDB 2150; not shown: N-terminal Flag tag) MAELTALESLIEMGFPRGRAEKALALTGNQGIEAAMDWLMEHEDDPDVDEPLETPLGHILGREPTSSEQGGLEGSGSAAGEGKPALSEEERQEQTKRMLELVAQKQREREEREEREALERERQRRRQGQELSAARQRLQEDEMRRAAEERRREKAEELAARQRVREKIERDKAERAKKYGGSVGSQPPPVAPEPGPVPSSPSQEPPTKREYDQCRIQVRLPDGTSLTQTFRAREQLAAVRLYVELHRGEELGGGQDPVQLLSGFPRRAFSEADMERPLQELGLVPSAVLIVAKKCPS | 68 | 57.4 | 663 | 

More lines, now with the values ahead:

sequence count [1] | sequence coverage [1] [%] | spectrum count [1] | binding result [2] | Binder
57 | 64.5 | 254 |  | Flag-UBXD3 (other, UniProt Q96LJ8 1-280, looked up, also called RDB 2149; not shown: N-terminal Flag tag) MATEAPVNIAPPECSTVVSTAVDSLIWQPNSLNMHMIRPKSAKGRTRPSLQKSQGVEVCAHHIPSPPPAIPYELPSSQKPGACAPKSPNQGASDEIPELQQQVPTGASSSLNKYPVLPSINRKNLEEEAVETVAKKASSLQLSSIRALYQDETGTMKTSEEDSRARACAVERKFIVRTKKQGSSRAGNLEEPSDQEPRLLLAVRSPTGQRFVRHFRPTDDLQTIVAVAEQKNKTSYRHCSIETMEVPRRRFSDLTKSLQECRIPHKSVLGISLEDGEGWP
154 | 78.5 | 1440 |  | Flag-ASPL (other, UniProt Q9BZE9 1-553, looked up, also called RDB 2144; not shown: N-terminal Flag tag) MAAPAGGGGSAVSVLAPNGRRHTVKVTPSTVLLQVLEDTCRRQDFNPCEYDLKFQRSVLDLSLQWRFANLPNNAKLEMVPASRSREGPENMVRIALQLDDGSRLQDSFCSGQTLWELLSHFPQIRECLQHPGGATPVCVYTRDEVTGEAALRGTTLQSLGLTGGSATIRFVMKCYDPVGKTPGSLGSSASAGQAAASAPLPLESGELSRGDLSRPEDADTSGPCCEHTQEKQSTRAPAAAPFVPFSGGGQRLGGPPGPTRPLTSSSAKLPKSLSSPGGPSKPKKSKSGQDPQQEQEQERERDPQQEQERERPVDREPVDREPVVCHPDLEERLQAWPAELPDEFFELTVDDVRRRLAQLKSERKRLEEAPLVTKAFREAQIKEKLERYPKVALRVLFPDRYVLQGFFRPSETVGDLRDFVRSHLGNPELSFYLFITPPKTVLDDHTQTLFQANLFPAALVHLGAEEPAGVYLEPGLLEHAISPSAADVLVARYMSRAAGSPSPLPAPDPAPKSEPAAEEGALVPPEPIPGTAQPVKRSLGKVPKWLKLPASKR
84 | 68.9 | 539 | no binding | Flag-FAF1 (other, UniProt Q9UNN5 1-650, looked up, also called RDB 2151; not shown: N-terminal Flag tag) MASNMDREMILADFQACTGIENIDEAITLLEQNNWDLVAAINGVIPQENGILQSEYGGETIPGPAFNPASHPASAPTSSSSSAFRPVMPSRQIVERQPRMLDFRVEYRDRNVDVVLEDTCTVGEIKQILENELQIPVSKMLLKGWKTGDVEDSTVLKSLHLPKNNSLYVLTPDLPPPSSSSHAGALQESLNQNFMLIITHREVQREYNLNFSGSSTIQEVKRNVYDLTSIPVRHQLWEGWPTSATDDSMCLAESGLSYPCHRLTVGRRSSPAQTREQSEEQITDVHMVSDSDGDDFEDATEFGVDDGEVFGMASSALRKSPMMPENAENEGDALLQFTAEFSSRYGDCHPVFFIGSLEAAFQEAFYVKARDRKLLAIYLHHDESVLTNVFCSQMLCAESIVSYLSQNFITWAWDLTKDSNRARFLTMCNRHFGSVVAQTIRTQKTDQFPLFLIIMGKRSSNEVLNVIQGNTTVDELMMRLMAAMEIFTAQQQEDIKDEDEREARENVKREQDEAYRLSLEADRAKREAHEREMAEQFRLEQIRKEQEEEREAIRLSLEQALPPEPKEENAEPVSKLRIRTPSGEFLERRFLASNKLQIVFDFVASKGFPWDEYKLLSTFPRRDVTQLDPNKSLLEVKLFPQETLFLEAKE
27 | 41.1 | 958 |  | Flag-UBXD2 (other, UniProt Q92575 1-508, looked up, also called RDB 2153; not shown: N-terminal Flag tag) MLWFQGAIPAAIATAKRSGAVFVVFVAGDDEQSTQMAASWEDDKVTEASSNSFVAIKIDTKSEACLQFSQIYPVVCVPSSFFIGDSGIPLEVIAGSVSADELVTRIHKVRQMHLLKSETSVANGSQSESSVSTPSASFEPNNTCENSQSRNAELCEIPPTSDTKSDTATGGESAGHATSSQEPSGCSDQRPAEDLNIRVERLTKKLEERREEKRKEEEQREIKKEIERRKTGKEMLDYKRKQEEELTKRMLEERNREKAEDRAARERIKQQIALDRAERAARFAKTKEEVEAAKAAALLAKQAEMEVKRESYARERSTVARIQFRLPDGSSFTNQFPSDAPLEEARQFAAQTVGNTYGNFSLATMFPRREFTKEDYKKKLLDLELAPSASVVLLPAGRPTASIVHSSSGDIWTLLGTVLYPFLAIWRLISNFLFSNPPPTQTSVRVTSSEPPNPASSSKSEKREPVRKRVLEKRGDDFKKEGKIYRLRTQDDGEDENNTWNGNSTQQM
159 | 84.3 | 1130 |  | Flag-UBXD1 (other, UniProt Q9BZV1 1-441, looked up, also called RDB 2152; not shown: N-terminal Flag tag) MKKFFQEFKADIKFKSAGPGQKLKESVGEKAHKEKPNQPAPRPPRQGPTNEAQMAAAAALARLEQKQSRAWGPTSQDTIRNQVRKELQAEATVSGSPEAPGTNVVSEPREEGSAHLAVPGVYFTCPLTGATLRKDQRDACIKEAILLHFSTDPVAASIMKIYTFNKDQDRVKLGVDTIAKYLDNIHLHPEEEKYRKIKLQNKVFQERINCLEGTHEFFEAIGFQKVLLPAQDQEDPEEFYVLSETTLAQPQSLERHKEQLLAAEPVRAKLDRQRRVFQPSPLASQFELPGDFFNLTAEEIKREQRLRSEAVERLSVLRTKAMREKEEQRGLRKYNYTLLRVRLPDGCLLQGTFYARERLGAVYGFVREALQSDWLPFELLASGGQKLSEDENLALNECGLVPSALLTFSWDMAVLEDIKAAGAEPDSILKPELLSAIEKLL
